Bridge positions count the residues as written; N and C are the ends. Square brackets hold non-standard residues; d marks the D form. Ends that are not written are not given here. * marks the point of attachment. X5 = Tetrahydropyranyl‑4‑acetic acid, O=C(CC1CCOCC1)*; Oic = O=C(O)[C@@H]1C[C@@H]2CCCC[C@@H]2N1; NMeI = CC[C@H](C)[C@H](NC)C(=O)O; aIle = CC[C@@H](C)[C@H](N)C(=O)O; tBuAla = CC(C)(C)C[C@H](N)C(=O)O; Pen = CC(C)(S)[C@H](N)C(=O)O; Sar = CNCC(=O)O
T1: recombinant human MASP1 active protease (amino acids 297-699, C-terminal His Tag) (human, UniProt P48740 297-699)
T1 sequence: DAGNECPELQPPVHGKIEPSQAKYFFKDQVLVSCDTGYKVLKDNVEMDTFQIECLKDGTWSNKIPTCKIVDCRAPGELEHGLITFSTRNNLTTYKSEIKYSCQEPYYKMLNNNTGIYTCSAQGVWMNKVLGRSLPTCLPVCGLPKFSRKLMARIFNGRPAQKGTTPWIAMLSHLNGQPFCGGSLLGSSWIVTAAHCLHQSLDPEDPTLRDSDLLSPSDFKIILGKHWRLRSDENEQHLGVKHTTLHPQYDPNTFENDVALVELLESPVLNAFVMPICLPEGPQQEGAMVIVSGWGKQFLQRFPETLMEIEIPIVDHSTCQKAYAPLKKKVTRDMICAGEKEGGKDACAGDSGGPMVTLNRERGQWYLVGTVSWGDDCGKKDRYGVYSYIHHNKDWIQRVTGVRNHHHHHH

B1: Example 345: IC+SRS-((tBu)A)-PPI-(Pen)+I-NH2 (peptide)
peptide: ICSRS[tBuAla]PPI[Pen]I-NH2
modifications: disulfide 2-10; N-terminus assumed
SMILES: CC[C@H](C)[C@H](N)C(=O)N[C@H]1CSSC(C)(C)[C@@H](C(=O)N[C@H](C(N)=O)[C@@H](C)CC)NC(=O)[C@H]([C@@H](C)CC)NC(=O)[C@@H]2CCCN2C(=O)[C@@H]2CCCN2C(=O)[C@H](CC(C)(C)C)NC(=O)[C@H](CO)NC(=O)[C@H](CCCNC(=N)N)NC(=O)[C@H](CO)NC1=O
B2: Example 341: IC+SRSLP-(Oic)-I-(Pen)+I-NH2 (peptide)
peptide: ICSRSLP[Oic]I[Pen]I-NH2
modifications: disulfide 2-10; N-terminus assumed
SMILES: CC[C@H](C)[C@H](N)C(=O)N[C@H]1CSSC(C)(C)[C@@H](C(=O)N[C@H](C(N)=O)[C@@H](C)CC)NC(=O)[C@H]([C@@H](C)CC)NC(=O)[C@@H]2C[C@@H]3CCCC[C@@H]3N2C(=O)[C@@H]2CCCN2C(=O)[C@H](CC(C)C)NC(=O)[C@H](CO)NC(=O)[C@H](CCCNC(=N)N)NC(=O)[C@H](CO)NC1=O
B3: Example 339: ((N-Me)G)-IC+SRSLPPIC+IPE-OH (peptide)
peptide: [Sar]ICSRSLPPICIPE-OH
modifications: disulfide 3-11; N-terminus assumed
SMILES: CC[C@H](C)[C@H](NC(=O)CNC)C(=O)N[C@H]1CSSC[C@@H](C(=O)N[C@H](C(=O)N2CCC[C@H]2C(=O)N[C@@H](CCC(=O)O)C(=O)O)[C@@H](C)CC)NC(=O)[C@H]([C@@H](C)CC)NC(=O)[C@@H]2CCCN2C(=O)[C@@H]2CCCN2C(=O)[C@H](CC(C)C)NC(=O)[C@H](CO)NC(=O)[C@H](CCCNC(=N)N)NC(=O)[C@H](CO)NC1=O
B4: Example 342: (Tetrahydropyranyl-4-acetic acid)-IC+SRS-((tBu)A)-PPIC+IPD-NH2 (peptide)
peptide: X5-ICSRS[tBuAla]PPICIPD-NH2
modifications: disulfide 2-10
SMILES: CC[C@H](C)[C@H](NC(=O)CC1CCOCC1)C(=O)N[C@H]1CSSC[C@@H](C(=O)N[C@H](C(=O)N2CCC[C@H]2C(=O)N[C@@H](CC(=O)O)C(N)=O)[C@@H](C)CC)NC(=O)[C@H]([C@@H](C)CC)NC(=O)[C@@H]2CCCN2C(=O)[C@@H]2CCCN2C(=O)[C@H](CC(C)(C)C)NC(=O)[C@H](CO)NC(=O)[C@H](CCCNC(=N)N)NC(=O)[C@H](CO)NC1=O
B5: Example 346: AIC+SRSLPP-(allo-I)-C+IPD-NH2 (peptide)
peptide: AICSRSLPP[aIle]CIPD-NH2
modifications: disulfide 3-11; N-terminus assumed
SMILES: CC[C@@H](C)[C@@H]1NC(=O)[C@@H]2CCCN2C(=O)[C@@H]2CCCN2C(=O)[C@H](CC(C)C)NC(=O)[C@H](CO)NC(=O)[C@H](CCCNC(=N)N)NC(=O)[C@H](CO)NC(=O)[C@@H](NC(=O)[C@@H](NC(=O)[C@H](C)N)[C@@H](C)CC)CSSC[C@@H](C(=O)N[C@H](C(=O)N2CCC[C@H]2C(=O)N[C@@H](CC(=O)O)C(N)=O)[C@@H](C)CC)NC1=O
B6: Example 340: ((N-Me)G)-((N-Me)I)-C+SRSLPPIC+IPD-NH2 (peptide)
peptide: [Sar][NMeI]CSRSLPPICIPD-NH2
modifications: disulfide 3-11; N-terminus assumed
SMILES: CC[C@H](C)[C@@H]1NC(=O)[C@@H]2CCCN2C(=O)[C@@H]2CCCN2C(=O)[C@H](CC(C)C)NC(=O)[C@H](CO)NC(=O)[C@H](CCCNC(=N)N)NC(=O)[C@H](CO)NC(=O)[C@@H](NC(=O)[C@H]([C@@H](C)CC)N(C)C(=O)CNC)CSSC[C@@H](C(=O)N[C@H](C(=O)N2CCC[C@H]2C(=O)N[C@@H](CC(=O)O)C(N)=O)[C@@H](C)CC)NC1=O

target: T1, recombinant human MASP1 active protease …; experiment: cell-based or functional assay

Point of comparison: B4, “human MASP1 IC50” value 26 nM. Against it:
- B1 — within 1.5-fold, 27 nM
- B2 — the same, 26 nM
- B3 — the same, 26 nM
- B5 — within 1.5-fold, 27 nM
- B6 — the same, 26 nM
- AICSRS[2‑Amino‑7‑(tert-butoxy)‑7‑oxoheptanoic acid]PPI[Pen]IPD-NH2 (disulfide 3-11) [Example 344: AIC+SRS-(2-Amino-7-(tert-butoxy)-7-oxoheptanoic acid)-PPI-(Pen)+IPD-NH2] — within 1.5-fold, 27 nM

target: recombinant human MASP2 active protease (amino acids 297-686, C-terminal His Tag) (human, UniProt O00187 297-686); experiment: cell-based or functional assay
Sequence (O00187 other isoform, or with tags, fused parts or gaps limits assumed): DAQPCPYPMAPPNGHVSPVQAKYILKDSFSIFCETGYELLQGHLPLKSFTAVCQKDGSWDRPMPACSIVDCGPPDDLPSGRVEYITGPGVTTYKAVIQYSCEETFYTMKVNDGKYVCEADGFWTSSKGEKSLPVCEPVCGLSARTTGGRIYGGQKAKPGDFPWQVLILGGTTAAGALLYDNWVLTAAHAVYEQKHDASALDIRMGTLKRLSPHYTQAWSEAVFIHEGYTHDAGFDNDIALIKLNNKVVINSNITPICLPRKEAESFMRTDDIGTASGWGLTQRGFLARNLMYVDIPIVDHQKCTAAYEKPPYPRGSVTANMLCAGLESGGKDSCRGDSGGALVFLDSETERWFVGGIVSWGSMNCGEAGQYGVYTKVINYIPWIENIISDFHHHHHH

Point of comparison: B2, “human MASP2 IC50” value 430 nM. Against it:
- B1 — within 1.5-fold, 390 nM
- B3 — within 1.5-fold, 640 nM
- B4 — 25-fold lower, 17 nM
- B5 — 2.3-fold lower, 190 nM
- B6 — within 1.5-fold, 300 nM
- AICSRS[2‑Amino‑7‑(tert-butoxy)‑7‑oxoheptanoic acid]PPI[Pen]IPD-NH2 (disulfide 3-11) [Example 344: AIC+SRS-(2-Amino-7-(tert-butoxy)-7-oxoheptanoic acid)-PPI-(Pen)+IPD-NH2] — 8.4-fold lower, 51 nM
